Laboratory results from paper PMC4403821.

B1: ORF74-Rluc8 [Kaposi's sarcoma-associated herpesvirus (KSHV)] / β-arrestin1-eYFP [not stated] (parent)
chain 1: MGDKGTRVFKKASPNGKLTVYLGKRDFVDHIDLVDPVDGVVLVDPEYLKERRVYVTLTCAFRYGREDLDVLGLTFRKDLFVANVQSFPPAPEDKKPLTRLQERLIKKLGEHAYPFTFEIPPNLPCSVTLQPGPEDTGKACGVDYEVKAFCAENLEEKIHKRNSVRLVIRKVQYAPERPGPQPTAETTRQFLMSDKPLHLEASLDKEIYYHGEPISVNVHVTNNTNKTVKKIKISVRQYADICLFNTAQYKCPVAMEEADDTVAPSSTFCKVYTLTPFLANNREKRGLALDGKLKHEDTNLASSTLLREGANREILGIIVSYKVKVKLVVSRGGLLGDLASSDVAVELPFTLMHPKPKEEPPHREVPENETPVDTNLIELDTNDDDIVFEDFARQRLKGMKDDKEEEEDGTGSPQLNNR
chain 2: MAAEDFLTIFLDDDESWNETLNMSGYDYSGNFSLEVSVCEMTTVVPYTWNVGILSLIFLINVLGNGLVTYIFCKHRSRAGAIDILLLGICLNSLCLSISLLAEVLMFLFPNIISTGLCRLEIFFYYLYVYLDIFSVVCVSLVRYLLVAYSTRSWPKKQSLGWVLTSAALLIALVLSGDACRHRSRVVDPVSKQAMCYENAGNMTADWRLHVRTVSVTAGFLLPLALLILFYALTWCVVRRTKLQARRKVRGVIVAVVLLFFVFCFPYHVLNLLDTLLRRRWIRDSCYTRGLINVGLAVTSLLQALYSAVVPLIYSCLGSLFRQRMYGLFQSLRQSFMSGATT

Variants of: B1
Assay: BRET
Conditions: with β-arrestin1-eYFP; 300 nM CXCL1 (black bar); vehicle bar ~1.00; parent: 1.14; read off a plot

Variant	response [fold basal]
chain 2 S315A S319A S331A S335A S338A T341A T342A	1
